What all share (assay): purified protein, by the assay type
What all share (format): biochemical, Bacillus cereus
What all share (conditions): other: 10 mM phosphate buffer, pH 7.0, 30° C, Hanes plot, mean of three independent measurements

Series [1] concerns CCN1CCN(C(=O)N[C@@H](C(=O)N[C@@H]2C(=O)N3[C@@H]2SC(C)(C)[C@@H]3C(=O)O)c2ccccc2)C(=O)C1=O. On the procedure: (§1) The enzyme kinetic parameters kcat and Km were determined from initial rates by Hanes plot. The reactions were performed in 10 mM phosphate buffer, pH 7.0 at 30° C. The reaction cuvette (one mL) contained about 5 pmol of enzyme in all reactions except 1.7 pmol of enzyme in the meropenem assay. The hydrolysis of various beta-lactam substrates was spectrophometrically recorded at a wavelength specific for each substrate.
(§2) Values for different kinetic parameters (kcat, Km and kcat/Km) that represent mean values obtained from three independent measurements are reported in Table 6.

The test system of series [2] is CO/N=C(\C(=O)N[C@@H]1C(=O)N2C(C(=O)O)=C(COC(N)=O)CS[C@H]12)c1ccco1. How it is done: as §1, §2
In series [3] the test system is CC1(C)S[C@@H]2[C@H](NC(=O)[C@H](N)c3ccc(O)cc3)C(=O)N2[C@H]1C(=O)O. How it is done:
as §1, §2

In series [4] the test system is CO/N=C(\C(=O)N[C@@H]1C(=O)N2C(C(=O)O)=C(CSc3nc(=O)c(=O)[nH]n3C)CS[C@H]12)c1csc(N)n1. How it is done:
as §1, §2

Series [5] deals with CC1(C)S[C@@H]2[C@H](NC(=O)[C@H](N)c3ccccc3)C(=O)N2[C@H]1C(=O)O. How it is done: as §1, §2
In series [6] the test system is CO/N=C(\C(=O)N[C@@H]1C(=O)N2C(C(=O)O)=C(COC(C)=O)CS[C@H]12)c1csc(N)n1. How it is done: as §1, §2
Series [7] has as its system C[C@@H](O)[C@H]1C(=O)N2C(C(=O)O)=C(S[C@@H]3CN[C@H](C(=O)N(C)C)C3)[C@H](C)[C@H]12. How it is done:
as §1, §2

Usually Km stands for the concentration of substrate that gives half-maximal velocity. With “P2A metallo-beta-lactamase (Bacillus cereus)”, the Michaelis-Menten constant (Km) was 372 µM in series [1]; 27 µM in series [2]; 716 µM in series [3]; 68 µM in series [4]; 942 µM in series [5]; 66 µM in series [6]. Moreover, the Km in series [7] was 410 µM.

These data come from patent US7989192B2, “Modified beta-lactamase and method for its preparation” (IPSAT Therapies Oy, priority 2006, dated 2011).
